B1: Twister Ribozyme (parent)
chain: AACACUGCCAAUGCCGGUCCCAAGCCCGGAUAAAAGUGGAGGGGGCGG

Variants of: B1
Experiment: self-cleavage, relative activity (ratio to wild type); higher = more cleavage; co-transcriptional

Variant	self-cleavage
A23U G36U	0.0806
A23U G36A	0.132
G24C A30U	0.0977
G24C A30C	0.0817
G24C A30G	0.096
G24A G38A	0.101
G24A G38C	0.106
A23C G45A	0.118
A23C G45U	0.156
A23C C25A	0.066
A23C C25G	0.0881
G24C A32C	0.118
G24C A32G	0.0875
G24C A32U	0.13
G24A G45U	0.118
G24A G45C	0.0846
A22U G42C	0.154
A22U G42U	0.191
A23U G45U	0.249
A23U G45C	0.141
A23C G38U	0.107
A23C G38A	0.131
A22G G48U	0.334
G24U G38A	0.0987

Variant	self-cleavage
G24U G38U	0.0819
A23C C27U	0.0937
A23C G29A	0.196
A23G G45A	0.332
A22U C26G	0.0767
G24U A32C	0.113
C25A A33U	0.0752
C25A A33G	0.079
G24U C46G	0.081
A22U G36C	0.19
A22U G36A	0.179
A23G G42A	0.128
A23G G42U	0.121
A23C G42U	0.0925
A23C G42C	0.156
A23C G42A	0.113
G24A	0.125
G24U	0.128
G24C	0.102
A23C A35U	0.404
A22U G29A	0.644
A22U G29C	0.604
A22G A32G	0.25
A22G G47C	0.128

Variant	self-cleavage
A22G G47U	0.136
A22G G47A	0.184
G24U U37A	0.0892
A23U C25A	0.0618
A23U C25U	0.116
A22U G24U	0.11
A22U G24C	0.0864
A23C	0.385
A23U	0.697
A23G	0.634
A22U A35U	0.659
A22U A35C	0.778
G24A A35C	0.102
G24A A35U	0.113
A22G U37C	0.129
A23G G24C	0.0875
A23G G24A	0.12
A23G G24U	0.063
A23C A40G	0.128
A23C A40U	0.146
A23C A40C	0.0967
G24C G39C	0.0715
A23U G43A	0.118
A23U G43U	0.112

Variant	self-cleavage
G24A G29U	0.1
G24A G29A	0.155
A23C A34U	0.0811
A23C A34C	0.161
G24U G48C	0.127
G24A A30U	0.0686
G24A A30C	0.0875
G24A A30G	0.125
G24U G47C	0.131
G24U A35G	0.0925
G24A G43U	0.0769
A23G G29C	0.1
A23U A33G	0.18
A23U A33C	0.186
A22U U37G	0.554
A22U U37C	0.236
A22C G48C	1.16
A22C G48U	1.03
G24A G47U	0.0892
G24A G47A	0.096
G24U A30G	0.111
G24U A30U	0.109
G24A A34C	0.0735
G24A A34U	0.0893

Variant	self-cleavage
A22G A35U	0.313
A22G A35C	0.195
G24A G44U	0.0885
A23U U37A	0.178
A23U U37G	0.0831
A23U U37C	0.0907
G24A C26U	0.077
A23C G36C	0.102
A22U G45C	0.401
A22U G45U	0.57
C25A A30U	0.0882
A22G C27G	0.084
A22G C27U	0.111
A23U A40U	0.0967
A23U A40G	0.0874
A23U U31G	0.643
A22G G39A	0.101
A22G G39U	0.109
A23U A34U	0.121
A22U A40C	0.184
A22U A40G	0.734
A22G C25G	0.0838
A22G C25A	0.0752
G24U G36U	0.0805

Variant	self-cleavage
A22U A32U	0.71
A22U A32C	0.859
A22U A32G	0.786
G24C C46A	0.109
A22G G36C	0.0743
A22G A34C	0.0775
A22U G39A	0.099
A23G A35C	0.499
A23G A35G	0.188
A23G A35U	0.472
A23C C46U	0.486
A23C C46G	0.155
G24A C46U	0.107
G24A C46A	0.0898
A23G G39U	0.142
A23G G39C	0.102
G24A C25U	0.0836
G24A C25A	0.115
A23U C27U	0.305
G24U G43U	0.0757
G24U G43A	0.0702
A23G A40G	0.123
A23G A40C	0.0453
A23G A40U	0.125

Variant	self-cleavage
A23G C26A	0.0747
G24A A40G	0.0838
G24A A40U	0.112
G24U C27A	0.106
G24U C27G	0.0792
G24C G29A	0.132
G24C G29U	0.0988
G24C A34G	0.103
G24C A40G	0.0575
G24C A40C	0.141
A22G G29C	0.0828
A22G G29A	0.221
A23U A32G	0.45
A22G G45C	0.124
A23U G42A	0.125
A23U G42U	0.0934
A23U G42C	0.148
A23U C46G	0.652
A23U C46U	0.731
A23U C46A	0.325
A23G A34G	0.112
A23G A34C	0.0596
A23C G48U	0.181

— the RNAGym collection of RNA variant scans (doi:10.7554/elife.80360)
